Source: patent US20220033519A1 (NATIONAL RESEARCH COUNCIL OF CANADA, published 2022)

T1: soluble and secreted FUT8 (sFUT8) enzyme (aa 87-575; UniProtKB #Q9BYC5) with C-terminal polyhistidine tag (UniProt Q9BYC5 87-575)
T1 sequence: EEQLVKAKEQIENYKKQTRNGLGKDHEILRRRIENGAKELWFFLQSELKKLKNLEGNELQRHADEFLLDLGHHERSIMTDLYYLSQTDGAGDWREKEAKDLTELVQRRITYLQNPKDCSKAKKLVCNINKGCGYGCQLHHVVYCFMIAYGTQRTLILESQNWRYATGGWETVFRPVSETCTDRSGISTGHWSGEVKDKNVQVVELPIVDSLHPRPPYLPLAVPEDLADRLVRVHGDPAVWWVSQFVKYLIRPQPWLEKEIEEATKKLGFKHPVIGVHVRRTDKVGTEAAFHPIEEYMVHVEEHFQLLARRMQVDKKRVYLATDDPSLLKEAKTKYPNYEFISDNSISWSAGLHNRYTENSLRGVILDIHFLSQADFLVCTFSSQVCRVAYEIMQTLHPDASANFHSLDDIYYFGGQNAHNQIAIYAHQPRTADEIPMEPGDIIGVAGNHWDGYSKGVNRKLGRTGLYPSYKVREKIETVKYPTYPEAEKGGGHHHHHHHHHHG

B1: anti-FUT8 monoclonal antibody 1H9 (hybridoma) (antibody, V domains shown)
VH: EVQLQQSGPELVKPGASVKMSCKASGYIFTDYVMHWVKQSNGKSLEWIGYINPYNDYSNYNQKFKGKATLTVDKSSNTAYMQLNSLTSEDSAVYFCARSGDVWLAYWGQGTLVTISA
VL: DIVLTQSPASLAISLGQRATISCRASKSVSTSGYSYMHWYQQKPGQPPRLLIYLASNLESGVPARFSGSGSGTDFTLNIHPVEEEDGATYYCQHSRELPWTFGGGT
B2: anti-FUT8 monoclonal antibody 5C9 (hybridoma) (antibody, V domains shown)
VH: QVQLKESGPGLVAPSQSLSITCTVSGFSLTGYGVNWVRQPPGKGLEWLGTIWGDGSTDYNSALKSRLSISKDNSKTQVFLKMHSLQTDDTAIYYCARGGYDDYFGYAMDYWGQGTSVTVSS
VL: DIVMTQSQKFMSTVVGDRVSVTCKASQNVGTNVAWYQQKPGQSPKALIYSASYRYSGVPDRLTGSGSGTDFTLTFSYVQSEDLAEYFCQQYYTYPYTFGGGTKLEIK
B3: anti-FUT8 monoclonal antibody 1D2 (hybridoma) (antibody, V domains shown)
VH: QVQLKESGPGLVAPSQSLSITCTVSGFSLTGYGVNWVRQPPGKGLEWLGMIWGDGSTDYNSALKSRLSISKDNSKSQVFLKMNSLQTDDTASYYCARDFYDGYLYAMDYWGQGTSVTVSSAS
VL: DIVMTQSQKFMSTSLGDRVSVTCKASQNVGSYVAWYQQKPGQSPKALIYSASYRYSGVPDRFAGSGSGTDFTLTISNVQSEDLAEYFCQQYYTYPYTFGGGTWSTRLASWAFRSL

Biological target: T1, soluble and secreted FUT8 (sFUT8) …
Assay: cell-based or functional assay

Binder	FUT8 enzymatic activity (% inhibition)
B1	60%
B2	87%
B3	82%
